This note sets out measurements from patent US20250027068.

The chains are these.
B1: PRT-49 (protein)
chain: MANQEIRYSEVTPYHVTSVWTKGVTPPANFTQGEDVFHAPYVANQGWYDITKTFNGKDDLLCGAATAGNMLHWWFDQNKDYIDRYLEEHPEKAKINFNGEQMFDVKEAIDTKNDQTDSKLFEYFKEKAFPYLSTKHLGVFPDHVIDMFINGYRLSLTNHGPTPVKEGSKDPRGGFFDDVFGRGDQSKLLTSRHDFKEKNLKEISDLIKKELTEGKALGLSHTYANVRINHVINLWGADFDSNGNLKAIYVTDSDSNASVGMKKYFVGVNSAGKVAISAKEIKEDNIGAQVLGLFTLSTGQDSWNQTN
B2: PRT-55 (protein)
chain: MANQEIRYSEVTPYHVTSVWTKGVTPPANFTQGEDVFHAPYVANQGWYDITKTFNGKDDLLCGAATAGNMLHWWFDQNKDQIDRYLEEHPEKAKINFNGEQMFDVKEAIDTKNHQLDSKLFEYFKEKAFPYLSTKHLGVFPDLVIDMFINGYRLSLTNHGPTPVKEGSKDPRGGFFDAVFGRGDQSKLLTSRHDFKEKNLKEISDLIKKELTEGKALGLSHTYANVRINHVINLWGADFDSNGNLKAIYVTDSDSNASIGMKKYFVGVNSAGKVAISAKEIKEDNIGAQVLGLFTLSTGQDSWNQTN
B3: PRT-50 (protein)
chain: MANQEIRYSEVTPYHVTSVWTKGVTPPANFTQGEDVFHAPYVANQGWYDINKTFNGKDDLLCGAATAGNMLHWWFDQNKEQIERYLKEHPEKGKINFNGEQMFDVKEAIDTKNNQTDSKLFEYFKEKAFPYLSTKHLGVFPDRVLDMFINGYRLSLTNHGPTPVKEGSKDPRGGFFDDVFGRGDQSKLLTSRHDFKEKNLEEISDLIKKELTEGKALGLSHTYANVRINHVINLWGADFDSNGNLKAIYVTDSDSNASVGMKKYFVGVNSAGKVAISAKEIKEDNIGAQVLGLFTLSTGQDSWNQTN
B4: PRT-53 (protein)
chain: MANQEIRYSEVTPYHVTSVWTKGVTPPANFTQGEDVFHAPYVANQGWYDITKTFNGKDDLLCGAATAGNMLHWWFDQNKDQIDRYLEEHPEKQKINFNGEQMFDVKEAIDTKNDQLDSKLFEYFKEKAFPYLSTKHLGVFPDLVIDMFINGYRLSLTNHGPTPVKEGSKDPRGGIFDAVFTRGDQSKLLTSRHDFKEKNLKEISDLIKKELTEGKALGLSHTYANVRINHVINLWGADFDSNGNLKAIYVTDSDSNASIGMKKYFVGVNSAGKVAISAKEIKEDNIGAQVLGLFTLSTGQDSWNQTN
B5: PRT-59 (protein)
chain: MANQEIRYSEVTPYHVTSVWTKGVTPPANFTQGEDVFHAPYVANQGWYDITKTFNGKDDLLCGAATAGNMLHWWFDQNKDQIKRYLEEHPEKQKINFNGEQMFDVKEAIDTKNHQLDSKLFEYFKEKAFPYLSTKHLGVFPDHVIDMFINGYRLSLTNHGPTPVKEGSKDPRGGFFDAVFTRGDQSKLLTSRHDFKEKNLKEISDLIKKELTEGKALGLSHTYANVRINHVINLWGADFDSNGNLKAIYVTDSDSNASIGMKKYFVGVNSAGKVAISAKEIKEDNIGAQVLGLFTLSTGQDSWNQTN
B6: PRT-58 (protein)
chain: MANQEIRYSEVTPYHVTSVWTKGVTPPANFTQGEDVFHAPYVANQGWYDINKTFNGKDDLLCGAATAGNMLHWWFDQNKEYIDRYLKEHPEKQKINFNGEQMFDVKEAIDTKNHQLDSKLFEYFKEKAFPYLSTKHLGVFPDLVLDMFINGYRLSLTNHGPTPVKEGSKDPRGGFFDDVFTRGDQSKLLTSRHDFKEKNLKEISDLIKKELTEGKALGLSHTYANVRINHVINLWGADFDSNGNLKAIYVTDSDSNASIGMKKYFVGVNSAGKVAISAKEIKEDNIGAQVLGLFTLSTGQDSWNQTN
B7: PRT-54 (protein)
chain: MANQEIRYSEVTPYHVTSVWTKGVTPPANFTQGEDVFHAPYVANQGWYDITKTFNGKDDLLCGAATAGNMLHWWFDQNKDQIDRYLEEHPEKQKINFNGEQMFDVKEAIDTKNHQLDSKLFEYFKEKAFPYLSTKHLGVFPDLVIDMFINGYRLSLTNHGPTPVKEGSKDPRGGFFDAVFTRGDQSKLLTSRHDFKEKNLKEISDLIKKELTEGKALGLSHTYANVRINHVINLWGADFDSNGNLKAIYVTDSDSNASIGMKKYFVGVNSAGKVAISAKEIKEDNIGAQVLGLFTLSTGQDSWNQTN
B8: PRT-57 (protein)
chain: MANQEIRYSEVTPYHVTSVWTKGVTPPANFTQGEDVFHAPYVANQGWYDINKTFNGKDDLLCGAATAGNMLHWWFDQNKDYIDRYLEEHPEKQKINFNGEQMFDVKEAIDTKNHQLDSKLFEYFKEKAFPYLSTKHLGVFPDLVIDMFINGYRLSLTNHGPTPVKEGSKDPRGGFFDAVFGRGDQSKLLTSRHDFKEKNLKEISDLIKKELTEGKALGLSHTYANVRINHVINLWGADFDSNGNLKAIYVTDSDSNASIGMKKYFVGVNSAGKVAISAKEIKEDNIGAQVLGLFTLSTGQDSWNQTN
B9: PRT-56 (protein)
chain: MANQEIRYSEVTPYHVTSVWTKGVTPPANFTQGEDVFHAPYVANQGWYDINKTFNGKDDLLCGAATAGNMLHWWFDQNKEYIDRYLEEHPEKQKINFNGEQMFDVKEAIDTKNHQLDSKLFEYFKEKAFPYLSTKHLGVFPDLVLDMFINGYRLSLTNHGPTPVKEGSKDPRGGFFDAVFTRGDQSKLLTSRHDFKEKNLKEISDLIKKELTEGKALGLSHTYANVRINHVINLWGADFDSNGNLKAIYVTDSDSNASVGMKKYFVGVNSAGKVAISAKEIKEDNIGAQVLGLFTLSTGQDSWNQTN
B10: PRT-60 (protein)
chain: MANQEIRYSEVTPYHVTSVWTKGVTPPANFTQGEDVFHAPYVANQGWYDITKTFNGKDDLLCGAATAGNMLHWWFDQNKDQIKRYLEEHPEKAKINFNGEQMFDVKEAIDTKNHQLDSKLFEYFKEKAFPYLSTKHLGVFPDHVIDMFINGYRLSLTNHGPTPVKEGSKDPRGGIFDAVFGRGDQSKLLTSRHDFKEKNLKEISDLIKKELTEGKALGLSHTYANVRINHVINLWGADFDSNGNLKAIYVTDSDSNASIGMKKYFVGVNSAGKVAISAKEIKEDNIGAQVLGLFTLSTGQDSWNQTN
B11: PRT-3 (protein)
chain: MRNATEAYAKEVPHQITSVWTKGVTPLTPEQFRYNNEDVIHAPYLAHQGWYDITKAFDGKDNLLCGAATAGNMLHWWFDQNKTEIEAYLSKHPEKQKIIFNNQELFDLKAAIDTKDSQTNSQLFNYFRDKAFPNLSARQLGVMPDLVLDMFINGYYLNVFKTQSTDVNRPYQDKDKRGGIFDAVFTRGDQTTLLTARHDLKNKGLNDISTIIKQELTEGRALALSHTYANVSISHVINLWGADFNAEGNLEAIYVTDSDANASIGMKKYFVGINAHGHVAISAKKIEGENIGAQVLGLFTLSSGKDIWQKLS
B12: PRT-52 (protein)
chain: MANQEIRYSEVTPYHVTSVWTKGVTPPANFTQGEDVFHAPYVANQGWYDINKTFNGGDDLLCGAATAGNMLHWWFDQNKEYIDRYLKEHPEKQKINFNGEQMFDVKEAIDTKNSQTDSKLFEYFKEKAFPYLSTKHLGVFPDLVIDMFINGYRLSLTNHGPTPVKEGSKDPRGGFFDAVFTRGDQSKLLTSRHDFKEKNYNEISDLIKKELKEGKALGLSHTYANVRINHVINLWGADFDSNGNLKAIYVTDSDSNASVGMKKYFVGVNSAGKVAISAKEIKEDNIGAQVLGLFTLSTGQDSWNQTN
B13: PRT-51 (protein)
chain: MANQEIRYSEVTPYHVTSVWTKGVTPPANFTQGEDVFHAPYVANQGWYDINKTFNGKDDLLCGAATAGNMLHWWFDQNKDYIDRYLKKHPEKAKINFNGEQMFDVKEAIDTKNDQLDSKLFEYFKEKAFPYLSTKHLGVFPDLVLDMFINGYRLSLTNHGPTPVKEGSKDPRGGFFDDVFTRGDQSKLLTSRHDFKEKNLEEISDLIKKELTEGKALGLSHTYANVRINHVINLWGADFDENGNLKAIYVTDSDSNASIGMKRYFVGVNSAGKVAISAKEIKEDNIGAQVLGLFTLSTGQDSWNQTN

The series has as its target pooled human IgG.
The protein B1 came in with an Enzyme Activity Endpoint Assay: Fab′2 of 30 ng/µL, an Enzyme Activity Endpoint Assay: Fc of 96 ng/µL, an Enzyme Activity Endpoint Assay: IgG of 18 ng/µL and an Enzyme Activity Endpoint Assay: scIgG of 40 ng/µL.
As for B2, the Enzyme Activity Endpoint Assay (purified): Fab′2 was found to be 0 ng/µL, the Enzyme Activity Endpoint Assay (purified): Fc came to 70 ng/µL, the Enzyme Activity Endpoint Assay (purified): IgG was determined as 19 ng/µL and the Enzyme Activity Endpoint Assay (purified): scIgG worked out at 57 ng/µL.
B3 returned an Enzyme Activity Endpoint Assay: Fab′2 of 0 ng/µL, an Enzyme Activity Endpoint Assay: Fc of 5 ng/µL, an Enzyme Activity Endpoint Assay: IgG of 135 ng/µL and an Enzyme Activity Endpoint Assay: scIgG of 0 ng/µL.
B4 returned an Enzyme Activity Endpoint Assay: Fab′2 of 7 ng/µL, an Enzyme Activity Endpoint Assay: Fc of 84 ng/µL, an Enzyme Activity Endpoint Assay: IgG of 9 ng/µL and an Enzyme Activity Endpoint Assay: scIgG of 61 ng/µL.
B5 came in with an Enzyme Activity Endpoint Assay (purified): Fab′2 of 6 ng/µL, an Enzyme Activity Endpoint Assay (purified): Fc of 70 ng/µL, an Enzyme Activity Endpoint Assay (purified): IgG of 8 ng/µL and an Enzyme Activity Endpoint Assay (purified): scIgG of 56 ng/µL.
With B6, the Enzyme Activity Endpoint Assay (purified): Fab′2 is 0 ng/µL, the Enzyme Activity Endpoint Assay (purified): Fc amounted to 9 ng/µL, the Enzyme Activity Endpoint Assay (purified): IgG stood at 125 ng/µL and the Enzyme Activity Endpoint Assay (purified): scIgG turned out to be 1 ng/µL.
As for B7, the Enzyme Activity Endpoint Assay: Fab′2 is 0 ng/µL, the Enzyme Activity Endpoint Assay: Fc worked out at 24 ng/µL, the Enzyme Activity Endpoint Assay: IgG was found to be 110 ng/µL and the Enzyme Activity Endpoint Assay: scIgG was 10 ng/µL.
B8 registered an Enzyme Activity Endpoint Assay (purified): Fab′2 of 0 ng/µL, an Enzyme Activity Endpoint Assay (purified): Fc of 52 ng/µL, an Enzyme Activity Endpoint Assay (purified): IgG of 44 ng/µL and an Enzyme Activity Endpoint Assay (purified): scIgG of 55 ng/µL.
On the same counts, the results for B9 are 0 ng/µL, 13 ng/µL, 125 ng/µL and 3 ng/µL.
On the same counts, the results for B10 are 52 ng/µL, 133 ng/µL, 16 ng/µL and 16 ng/µL.
As for B11, the Enzyme Activity Endpoint Assay: Fab′2 turned out to be 14 ng/µL, the Enzyme Activity Endpoint Assay: Fc came out at 72 ng/µL, the Enzyme Activity Endpoint Assay: IgG was found to be 11 ng/µL and the Enzyme Activity Endpoint Assay: scIgG was 33 ng/µL.
For B12 the same measures were 0 ng/µL, 12 ng/µL, 122 ng/µL and 0 ng/µL.
On the same counts, the results for B13 are 0 ng/µL, 11 ng/µL, 118 ng/µL and 0 ng/µL.
